Data as given in IntAct's records for PubMed 29892012.

B1: Kinetochore protein NDC80 homolog (Homo sapiens), O14777 (parent)
chain: MKRSSVSSGGAGRLSMQELRSQDVNKQGLYTPQTKEKPTFGKLSINKPTSERKVSLFGKRTSGHGSRNSQLGIFSSSEKIKDPRPLNDKAFIQQCIRQLCEFLTENGYAHNVSMKSLQAPSVKDFLKIFTFLYGFLCPSYELPDTKFEEEVPRIFKDLGYPFALSKSSMYTVGAPHTWPHIVAALVWLIDCIKIHTAMKESSPLFDDGQPWGEETEDGIMHNKLFLDYTIKCYESFMSGADSFDEMNAELQSKLKDLFNVDAFKLESLEAKNRALNEQIARLEQEREKEPNRLESLRKLKASLQGDVQKYQAYMSNLESHSAILDQKLNGLNEEIARVELECETIKQENTRLQNIIDNQKYSVADIERINHERNELQQTINKLTKDLEAEQQKLWNEELKYARGKEAIETQLAEYHKLARKLKLIPKGAENSKGYDFEIKFNPEAGANCLVKYRAQVYVPLKELLNETEEEINKALNKKMGLEDTLEQLNAMITESKRSVRTLKEEVQKLDDLYQQKIKEAEEEDEKCASELESLEKHKHLLESTVNQGLSEAMNELDAVQREYQLVVQTTTEERRKVGNNLQRLLEMVATHVGSVEKHLEEQIAKVDREYEECMSEDLSENIKEIRDKYEKKATLIKSSEE
partner: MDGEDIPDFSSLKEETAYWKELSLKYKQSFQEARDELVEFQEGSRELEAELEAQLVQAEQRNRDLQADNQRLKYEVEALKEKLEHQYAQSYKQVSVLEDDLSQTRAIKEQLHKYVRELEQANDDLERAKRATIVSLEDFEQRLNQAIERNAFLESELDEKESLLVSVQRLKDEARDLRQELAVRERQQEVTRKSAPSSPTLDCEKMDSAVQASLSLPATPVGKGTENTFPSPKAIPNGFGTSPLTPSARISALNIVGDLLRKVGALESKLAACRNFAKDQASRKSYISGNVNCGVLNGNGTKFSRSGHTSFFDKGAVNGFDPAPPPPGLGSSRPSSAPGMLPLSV
B2: Coiled-coil domain-containing protein 120 (Homo sapiens), Q96HB5-4 (parent)
chain: MRREPRYQGQVGPDIHTDSERTLSSHQPRPLDSTKMEVKGQLISSPTFNAPAALFGEAAPQVKSERLRGLLDRQRTLQEALSLKLQELRKVCLQEAELTGQLPPECPLEPGERPQLVRRRPPTARAYPPPHPNQAHHSLCPAEELALEALEREVSVQQQIAAAARRLALAPDLSTEQRRRRRQVQADALRRLHELEEQLRDVRARLGLPVLPLPQPLPLSTGSVITTQGVCLGMRLAQLSQEDVVLHSESSSLSESGASHDNEEPHGCFSLAERPSPPKAWDQLRAVSGGSPERRTPWKPPPSDLYGDLKSRRNSVASPTSPTRSLPRSASSFEGRSVPATPVLTRGAGPQLCKPEGLHSRQWSGSQDSQMGFPRADPASDRASLFVARTRRSNSSEALLVDRAAGGGAGSPPAPLAPSASGPPVCKSSEVLYERPQPTPAFSSRTAGPPDPPRAARPSSAAPASRGAPRLPPVCGDFLLDYSLDRGLPRSGGGTGWGELPPAAEVPGPLSRRDGLLTMLPGPPPVYAADSNSPLLRTKDPHTRATRTKPCGLPPEAAEGPEVHPNPLLWMPPPTRIPSAGERSGHKNLALEGLRDWYIRNSGLAAGPQRRPVLPSVGPPHPPFLHARCYEVGQALYGAPSQAPLPHSRSFTAPPVSGRYYADFLYPPELSARLSDLTLEGEQSSSSDTQTPGTLV
partner: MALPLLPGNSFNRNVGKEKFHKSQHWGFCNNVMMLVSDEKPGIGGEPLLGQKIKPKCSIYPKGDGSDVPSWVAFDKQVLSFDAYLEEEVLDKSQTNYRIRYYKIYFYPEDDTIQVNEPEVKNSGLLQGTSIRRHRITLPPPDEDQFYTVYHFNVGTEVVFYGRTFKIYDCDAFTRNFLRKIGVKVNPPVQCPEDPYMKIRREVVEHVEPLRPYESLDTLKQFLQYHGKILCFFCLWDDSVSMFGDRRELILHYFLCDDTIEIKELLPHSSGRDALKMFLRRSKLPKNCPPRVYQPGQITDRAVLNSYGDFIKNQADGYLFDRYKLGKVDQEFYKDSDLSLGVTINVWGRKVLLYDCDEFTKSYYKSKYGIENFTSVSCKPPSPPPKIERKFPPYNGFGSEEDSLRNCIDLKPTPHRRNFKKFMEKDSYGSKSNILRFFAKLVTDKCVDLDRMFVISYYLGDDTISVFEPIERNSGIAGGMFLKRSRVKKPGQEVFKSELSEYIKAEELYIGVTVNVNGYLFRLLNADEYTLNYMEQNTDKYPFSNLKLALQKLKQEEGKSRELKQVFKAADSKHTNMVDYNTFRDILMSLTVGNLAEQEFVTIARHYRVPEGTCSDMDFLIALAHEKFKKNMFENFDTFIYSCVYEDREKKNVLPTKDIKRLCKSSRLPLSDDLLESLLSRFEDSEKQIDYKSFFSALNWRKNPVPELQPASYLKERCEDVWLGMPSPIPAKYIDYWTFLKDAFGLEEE
B3: Protein VAC14 homolog (Homo sapiens), Q08AM6 (parent)
chain: MNPEKDFAPLTPNIVRALNDKLYEKRKVAALEIEKLVREFVAQNNTVQIKHVIQTLSQEFALSQHPHSRKGGLIGLAACSIALGKDSGLYLKELIEPVLTCFNDADSRLRYYACEALYNIVKVARGAVLPHFNVLFDGLSKLAADPDPNVKSGSELLDRLLKDIVTESNKFDLVSFIPLLRERIYSNNQYARQFIISWILVLESVPDINLLDYLPEILDGLFQILGDNGKEIRKMCEVVLGEFLKEIKKNPSSVKFAEMANILVIHCQTTDDLIQLTAMCWMREFIQLAGRVMLPYSSGILTAVLPCLAYDDRKKSIKEVANVCNQSLMKLVTPEDDELDELRPGQRQAEPTPDDALPKQEGTASGGPDGSCDSSFSSGISVFTAASTERAPVTLHLDGIVQVLNCHLSDTAIGMMTRIAVLKWLYHLYIKTPRKMFRHTDSLFPILLQTLSDESDEVILKDLEVLAEIASSPAGQTDDPGPLDGPDLQASHSELQVPTPGRAGLLNTSGTKGLECSPSTPTMNSYFYKFMINLLKRFSSERKLLEVRGPFIIRQLCLLLNAENIFHSMADILLREEDLKFASTMVHALNTILLTSTELFQLRNQLKDLKTLESQNLFCCLYRSWCHNPVTTVSLCFLTQNYRHAYDLIQKFGDLEVTVDFLAEVDKLVQLIECPIFTYLRLQLLDVKNNPYLIKALYGLLMLLPQSSAFQLLSHRLQCVPNPELLQTEDSLKAAPKSQKADSPSIDYAELLQHFEKVQNKHLEVRHQRSGRGDHLDRRVVL
partner: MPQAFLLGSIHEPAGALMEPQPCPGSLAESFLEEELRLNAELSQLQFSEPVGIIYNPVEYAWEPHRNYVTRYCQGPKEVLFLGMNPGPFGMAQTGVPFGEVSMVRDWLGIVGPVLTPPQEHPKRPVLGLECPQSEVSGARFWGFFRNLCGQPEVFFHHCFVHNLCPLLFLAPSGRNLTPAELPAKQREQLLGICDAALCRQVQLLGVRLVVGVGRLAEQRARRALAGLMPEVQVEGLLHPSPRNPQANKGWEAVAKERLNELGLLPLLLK
B4: Alpha-ketoglutarate-dependent dioxygenase alkB homolog 3 (Homo sapiens), Q96Q83 (parent)
chain: MEEKRRRARVQGAWAAPVKSQAIAQPATTAKSHLHQKPGQTWKNKEHHLSDREFVFKEPQQVVRRAPEPRVIDREGVYEISLSPTGVSRVCLYPGFVDVKEADWILEQLCQDVPWKQRTGIREDITYQQPRLTAWYGELPYTYSRITMEPNPHWHPVLRTLKNRIEENTGHTFNSLLCNLYRNEKDSVDWHSDDEPSLGRCPIIASLSFGATRTFEMRKKPPPEENGDYTYVERVKIPLDHGTLLIMEGATQADWQHRVPKEYHSREPRVNLTFRTVYPDPRGAPW
partner: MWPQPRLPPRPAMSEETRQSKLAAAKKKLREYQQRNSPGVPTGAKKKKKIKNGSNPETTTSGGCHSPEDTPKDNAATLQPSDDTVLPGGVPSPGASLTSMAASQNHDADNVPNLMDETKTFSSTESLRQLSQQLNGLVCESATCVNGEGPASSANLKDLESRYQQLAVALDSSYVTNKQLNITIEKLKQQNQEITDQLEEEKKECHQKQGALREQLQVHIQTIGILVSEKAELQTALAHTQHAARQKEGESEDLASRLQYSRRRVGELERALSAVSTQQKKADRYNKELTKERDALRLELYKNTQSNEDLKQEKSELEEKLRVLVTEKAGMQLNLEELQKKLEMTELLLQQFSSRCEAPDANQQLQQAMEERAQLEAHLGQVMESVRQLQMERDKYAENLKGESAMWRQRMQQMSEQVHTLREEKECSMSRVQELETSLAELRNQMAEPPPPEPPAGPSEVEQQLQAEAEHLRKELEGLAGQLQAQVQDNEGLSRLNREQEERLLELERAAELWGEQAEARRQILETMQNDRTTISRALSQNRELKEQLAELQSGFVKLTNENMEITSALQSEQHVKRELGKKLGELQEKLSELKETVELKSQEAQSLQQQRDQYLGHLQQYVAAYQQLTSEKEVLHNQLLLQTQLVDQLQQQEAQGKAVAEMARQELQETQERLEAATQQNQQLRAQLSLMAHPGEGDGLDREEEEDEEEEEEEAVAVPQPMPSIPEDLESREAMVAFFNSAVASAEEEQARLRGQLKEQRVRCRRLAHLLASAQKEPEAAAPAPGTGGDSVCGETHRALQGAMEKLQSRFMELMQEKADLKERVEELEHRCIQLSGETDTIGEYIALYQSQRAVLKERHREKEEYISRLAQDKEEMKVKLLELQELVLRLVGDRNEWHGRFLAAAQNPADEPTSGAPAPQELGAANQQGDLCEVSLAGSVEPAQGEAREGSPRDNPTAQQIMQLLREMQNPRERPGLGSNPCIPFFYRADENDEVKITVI
B5: Syntaxin-3 (Homo sapiens), Q13277 (parent)
chain: MKDRLEQLKAKQLTQDDDTDAVEIAIDNTAFMDEFFSEIEETRLNIDKISEHVEEAKKLYSIILSAPIPEPKTKDDLEQLTTEIKKRANNVRNKLKSMEKHIEEDEVRSSADLRIRKSQHSVLSRKFVEVMTKYNEAQVDFRERSKGRIQRQLEITGKKTTDEELEEMLESGNPAIFTSGIIDSQISKQALSEIEGRHKDIVRLESSIKELHDMFMDIAMLVENQGEMLDNIELNVMHTVDHVEKARDETKKAVKYQSQARKKLIIIIVLVVVLLGILALIIGLSVGLN
partner: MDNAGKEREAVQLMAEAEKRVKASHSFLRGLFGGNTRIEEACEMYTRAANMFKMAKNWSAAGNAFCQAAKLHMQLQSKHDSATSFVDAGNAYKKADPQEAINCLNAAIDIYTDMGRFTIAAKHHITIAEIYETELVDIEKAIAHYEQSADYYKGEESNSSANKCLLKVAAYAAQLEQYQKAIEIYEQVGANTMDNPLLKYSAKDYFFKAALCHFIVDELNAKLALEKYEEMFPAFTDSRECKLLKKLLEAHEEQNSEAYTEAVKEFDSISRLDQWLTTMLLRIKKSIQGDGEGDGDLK
B6: Synaptotagmin-16 (Homo sapiens), Q17RD7 (parent)
chain: MVLAMASQDVQNFFQPFSSWISRVYEALQQAGDMLSASLVNISKQDSKLSDKLDQDLDNIQIQETYFEDEEQDNDWSQEDANSLFLEVDHFSCCNSDLQDSAQNSSPSLSQHAKDSCSTMSQWPNWASDDRKLPHVLSSIAEEEHHLEKQRSGLQHGFDSQLPGTLETVNGKKQVNSFGDDEELSTSSDSDEEVIKQFEISVSRSQSFRSVTSEKGKQTGLEQKPKFSRSLLTHGEDGTEVSACEDLDGASQRRYSENLSYGEDDHIPAHSQSPCERGDAKHHGTSHQESSVVQSLRRQSTEGSLEMETAFNSRGFEDSYATDSSSMWSPEEQDRTNLQVPSGVSEPISKCGDLDVIFEYRAASQKLTVTIVRAQGLPDKDRSGVNSWQVHVVLLPGKKHRGRTNIQRGPNPVFREKVTFAKLEPRDVAACAVRFRLYAARKMTRERMMGEKLFYLSHLHPEGEMKVTLVLEPRSNISSGGSPLSPSAVSHSDSTSSTQSLSHGGAPELLVGLSYNATTGRLSVEMIKGSHFRNLAVNRAPDTYGKLFLLNSVGQEMSRCKTSIRRGQPNPVYKETFVFQVALFQLSDVTLMISVYNRRTMKRKEMIGWIALGQNSSGEEEQDHWEEMKETKGQQICRWHTLLES
partner: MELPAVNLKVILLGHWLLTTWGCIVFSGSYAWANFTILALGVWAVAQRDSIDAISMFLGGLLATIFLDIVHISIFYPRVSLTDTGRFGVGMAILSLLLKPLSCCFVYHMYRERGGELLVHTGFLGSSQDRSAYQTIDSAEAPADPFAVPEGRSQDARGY

Variants of: B1
Conditions: with ndel1_human NDEL1, Q9GZM8
In the case of K288E, the “effect of a mutation on the interaction” value is reported as “with no effect”.

Variants of: B2
Conditions: with efhc2_human EFHC2, Q5JST6
For R346W, the “effect of a mutation on the interaction” value was “with no effect”.

Variants of: B3
Conditions: with smug1_human SMUG1, Q53HV7
A127S was tested, and the “effect of a mutation on the interaction” value was “with no effect”.

Variants of: B4
Conditions: with goga2_human GOLGA2, Q08379
For R64H, the “effect of a mutation on the interaction” value was “with no effect”.

Variants of: B5
Conditions: with snab_human NAPB
For K199E, the “effect of a mutation on the interaction” value was “disrupting interaction strength”.

Variants of: B6
Conditions: with atrap_human AGTRAP
R441W was tested, and the “effect of a mutation on the interaction” value was “with no effect”.
